# Target: human IgE myeloma protein (American Biosystems, Inc. cat. no. A113) (human)
# Assay: ELISA negative control run with each assay (human IgE ELISA and peptide ELISAs)
# Sequence of human IgE myeloma protein (American Biosystems, Inc. cat. no. A113) (human) (heavy, as listed by the source): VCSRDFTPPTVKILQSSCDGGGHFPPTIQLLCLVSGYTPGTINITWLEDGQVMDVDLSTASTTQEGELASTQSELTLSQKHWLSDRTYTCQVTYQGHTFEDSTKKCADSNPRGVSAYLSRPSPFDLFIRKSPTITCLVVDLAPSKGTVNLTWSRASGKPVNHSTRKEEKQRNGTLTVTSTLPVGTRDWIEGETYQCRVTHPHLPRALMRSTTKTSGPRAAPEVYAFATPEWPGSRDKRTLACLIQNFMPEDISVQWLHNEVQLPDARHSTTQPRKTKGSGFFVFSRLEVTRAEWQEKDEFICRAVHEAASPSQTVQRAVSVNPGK
substance,measurement,value
diluted normal guinea pig control samples (antibody),A492,< 0.15 A492

# Source: patent US20050250934A1
